One may read the EC50 as the midpoint of the concentration-response curve. What is called IC50 is the concentration at which inhibition is half-maximal. Read a high IC50 as a need for much substance. Usually EC50 (read off the curve) stands for the concentration giving half of the maximal effect.

Assay [1] deals with T1, human BTLA (B- and T-lymphocyte attenuator) on cells (human, UniProt Q7Z6A9 31-289). In words: cell-based or functional assay.
Assay [2] deals with T1, human BTLA (B- and T-lymphocyte …). In words: cell-based or functional assay. The source holds these as a separate data set.
Assay [3] addresses T2, recombinant human BTLA (human, UniProt Q7Z6A9 31-157, limits assumed).
T2 construct: ELISA antigen; construct not described
T2 sequence (looked up): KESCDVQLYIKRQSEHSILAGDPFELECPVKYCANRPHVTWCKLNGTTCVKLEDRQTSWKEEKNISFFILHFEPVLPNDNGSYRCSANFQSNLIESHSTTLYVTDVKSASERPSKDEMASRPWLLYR
Put plainly: ELISA on recombinant human BTLA. (ELISA stands for enzyme-linked immunosorbent assay.)

Assay [4] concerns the target T1, human BTLA (B- and T-lymphocyte …). In words: FACS competition on HEK293.BTLA cells; competitor DL650-conjugated soluble HVEM. As for the experimental part:
In FIG. 3A, recombinant HVEM soluble protein was conjugated with DyLight 650 (DL650) fluorophore. HEK293 cells overexpressing hBTLA (HEK293.BTLA) were preincubated with increasing concentrations of HFB6-2 and HFB6-3 at 4° C. for 30 minutes and then with DL650-conjugated HVEM for an additional 30 minutes. After washing, soluble HVEM remaining associated with BTLA on HEK293.BTLA cells was measured by FACS. HFB6-2 and HFB6-3 blocked soluble HVEM and cellular BTLA interaction with single digit nM IC₅₀.

Assay [5] has the same target. In words: FACS on HEK293 cells overexpressing human BTLA, AF647 anti-human IgG Fc detection. On the procedure:
(§1) In FIGS. 2A-2B, HEK293 cells overexpressing human BTLA and Expi293 cells overexpressing cynomolgus BTLA were incubated with different concentrations of anti-BTLA parental antibodies. Anti-BTLA antibody binding to target cells was quantified with an AF647-conjugated anti-human IgG Fc 2nd antibody by FACS.

In assay [6] the target is T3, cynomolgus BTLA on cells (cynomolgus, UniProt A0A2K5W7M7 31-289).
T3 construct: whole, on cells; Overexpressed on Expi293 cells; also called cyno BTLA; CynoBTLA
T3 sequence: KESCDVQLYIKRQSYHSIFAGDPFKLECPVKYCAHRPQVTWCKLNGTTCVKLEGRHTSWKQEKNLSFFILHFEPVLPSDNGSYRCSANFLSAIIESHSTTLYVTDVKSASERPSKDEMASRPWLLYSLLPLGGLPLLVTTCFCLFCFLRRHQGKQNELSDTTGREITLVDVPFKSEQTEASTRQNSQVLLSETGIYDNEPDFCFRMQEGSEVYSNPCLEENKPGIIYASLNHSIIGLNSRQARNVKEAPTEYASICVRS
In words: FACS on Expi293 cells overexpressing cynomolgus BTLA, AF647 anti-human IgG Fc detection. As for the experimental part: as §1

For assay [7], the target named is T1, human BTLA (B- and T-lymphocyte …). In words: FACS, primary human T cells, donor 149, AF647 anti-human IgG Fc secondary antibody. On the procedure:
(§2) In FIGS. 4A-4D, primary T cells and B cells were isolated from human PBMC with EasySep™ Human T Cell Isolation Kit and B cell isolation kit ([…] Technologies: Vancouver, Canada). Isolated T cells or B cells were incubated with different concentrations of anti-BTLA parental antibodies. Anti-BTLA antibody binding to target cells was quantified with an AF647-conjugated anti-human IgG Fc 2nd antibody by FACS.
(In flow cytometry, cells or beads pass a laser one at a time.)

Assay [8] has the same target. Put plainly: FACS, primary human B cells, donor 149, AF647 anti-human IgG Fc secondary antibody. On the procedure: as §2
Assay [9] shares this target. In words: FACS, primary human T cells, donor 1709, AF647 anti-human IgG Fc secondary antibody. On the procedure: as §2
For assay [10] the target is unchanged. Put plainly: FACS, primary human B cells, donor 1709, AF647 anti-human IgG Fc secondary antibody. As for the experimental part:
as §2

The target is the same in assay [11]. Put plainly: cell-based or functional assay. The source holds these as a separate data set.
The target is the same in assay [12]. In words: FACS on HEK293T.hBTLA cells, AF647 anti-human IgG Fc detection. As for the experimental part: (§3) In FIGS. 11A and 11B, HEK293 overexpressing human BTLA (FIG. 11A) and Expi293 cells overexpressing cynomolgus BTLA (FIG. 11B) were incubated with different concentrations of selected HFB6-3 humanized variants with cysteine mutations. Anti-BTLA antibodies binding to target cells were quantified with an AF647-conjugated anti-human IgG Fc 2nd antibody by FACS. HFB6-3hz24-hG4P-C109A, HFB6-3hz25-hG4P-C109A, HFB6-3hz24-hG4P-C109S and HFB6-3hz25-hG4P-C109S bound to human BTLA and cyno BTLA with single digit nM and sub-nM EC₅₀, similar as parental HFB6-3 (FIGS. 11A and 11B and Table 13).

Assay [13] has as its target T3, cynomolgus BTLA on cells. In words: FACS on Expi293.cynoBTLA cells, AF647 anti-human IgG Fc detection. On the procedure: as §3
For assay [14], the target named is T1, human BTLA (B- and T-lymphocyte …). In words: FACS competition on HEK293T.hBTLA cells; competitor hrHVEM-His-DL650. On the procedure:
In FIG. 12A, recombinant HVEM soluble protein was conjugated with DyLight 650 (DL650) fluorophore. HEK293 cells overexpressing hBTLA (HEK293.BTLA) were preincubated with increasing concentrations of selected HFB6-3 humanized variants with cysteine mutants or parental HFB6-3 at 4° C. for 30 minutes and then with DL650-conjugated HVEM for additional 30 minutes. After washing, soluble HVEM remaining associated with BTLA on HEK293.BTLA cells was measured by FACS.

Assay [15] has the same target. In words: FACS, HEK293 cells overexpressing human BTLA, AF647 anti-human IgG Fc secondary antibody.
The target in assay [16] is T3, cynomolgus BTLA on cells. Put plainly: FACS, Expi293 cells overexpressing cynomolgus BTLA, AF647 anti-human IgG Fc secondary antibody.

B1: HFB6-2 (antibody, V domains shown)
VH: EVQLQQSGAELVKPGASVKLSCTASGVNIKDTYMYWVKQRPEQGLEWIGRIDPANGYTRYDPKFQDKATVTADTSSNTAHLQLSSLTSEDTAVYYCAVNDGYFEYFDVWGAGTTVTVSS
VL: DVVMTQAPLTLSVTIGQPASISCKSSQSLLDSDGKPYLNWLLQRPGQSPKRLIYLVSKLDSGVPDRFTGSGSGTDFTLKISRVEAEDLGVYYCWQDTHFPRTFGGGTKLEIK
notes: Mouse lead antibody; also called HFB6-2-hG4P; parental HFB6-2
B1: the “BTLA-HVEM blockade reporter assay, EC50” value in [1] turned out to be 10.2 nM. In addition, the “Reporter EC50” value in assay [2] worked out at 11.5 nM. Besides, the EC50 in assay [3] turned out to be 2.35 nM; in assay [5] it was 2.34 nM; in [6], 0.614 nM; in [7], 1.4 nM; in [8], 0.8 nM; in [9], 2 nM. It took 0.28 nM to reach a half-maximal effect in assay [10] (EC50). In assay [4], this molecule came in with an IC50 of 5.45 nM.

B2: HFB6-3 (antibody, V domains shown)
VH: EVQLQQSGAELVKPGASVKLSCTDSGFNIKDTYIHWVTQRPQQGLEWIGRIDPANGFTRYDPKFQGKATITSDTSSNTAYLQLSSLTSEDTAVYYCAREDGYPYYTLDCWGQGTSVTVSS
VL: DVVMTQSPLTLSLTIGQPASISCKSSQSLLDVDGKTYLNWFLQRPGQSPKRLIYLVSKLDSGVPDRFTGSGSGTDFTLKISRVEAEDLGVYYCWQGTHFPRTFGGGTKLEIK
notes: Mouse lead antibody; also called HFB6-3-hG4P; parental HFB6-3
Consider B2, for which the “BTLA-HVEM blockade reporter assay, EC50” value in assay [1] was determined as 12.5 nM. Also, in assay [11], the “CHO.TCRa.hHVEM/Jurkat.hBTLA.NFAT-luc (EC50 (nM))” value amounted to 7.9 nM. Besides, the EC50 in [12] came out at 3.21 nM; in assay [13] it was 5.7 nM; in [5] it was 1.45 nM; in assay [6] it was 0.823 nM; in assay [7], 3.7 nM; in [8], 0.44 nM. The EC50 amounted to 7.3 nM in assay [9] and 0.28 nM in [10]. Further, the IC50 was determined as 2.69 nM in assay [14] and 7.71 nM in [4].

B3: HFB6-3hz25-hG4P-C109A (antibody, V domains shown)
VH: QVQLQESGPGLVKPSGTLSLTCADSGFSISDTYIHWVRQPPGKGLEWIGRIDPANGFTRYNPSLKSRVTISSDKSKNQASLKLSSVTAADTAVYYCAREDGYPYYTLDAWGQGTTVTVSS
VL: DIVMTQSPDSLALSLGERATINCKSSQSLLDVDGKTYLNWFQQKPGQPPKRLIYLVSKLDSGVPDRFSGSGSGTDFTLTISSVQAEDVAVYYCWQGTHFPRTFGQGTKLEIK
notes: Humanized variant of HFB6-3
Take B3: the “CHO.TCRa.hHVEM/Jurkat.hBTLA.NFAT-luc (EC50 (nM))” value in [11] was 10.2 nM. In addition, the figures for the EC50 in [12] and in assay [13] were 3.2 nM and 9.69 nM, respectively. In addition, the IC50 in assay [14] came to 2.61 nM.

B4: HFB6-3hz25-hG4P-C109S (antibody, V domains shown)
VH: QVQLQESGPGLVKPSGTLSLTCADSGFSISDTYIHWVRQPPGKGLEWIGRIDPANGFTRYNPSLKSRVTISSDKSKNQASLKLSSVTAADTAVYYCAREDGYPYYTLDSWGQGTTVTVSS
VL: DIVMTQSPDSLALSLGERATINCKSSQSLLDVDGKTYLNWFQQKPGQPPKRLIYLVSKLDSGVPDRFSGSGSGTDFTLTISSVQAEDVAVYYCWQGTHFPRTFGQGTKLEIK
notes: Humanized variant of HFB6-3
B4: the “CHO.TCRa.hHVEM/Jurkat.hBTLA.NFAT-luc (EC50 (nM))” value in assay [11] amounted to 14.4 nM. Moreover, the EC50 in assay [12] was 4.04 nM; in [13], 8.83 nM. Moreover, in assay [14], the IC50 was found to be 3.2 nM.

B5: 22B3 (antibody, V domains shown)
VH: QVQLVQSGAEVKKPGASVKVSCKASGFSLSSYGVSWVRQAPGQGLEWMGAISYDGITYYASWAKSRVTMTRDTSTSTVYMELSSLRSEDTAVYYCARGDYYDDYVYVYALDIWGQGTLVTVSS
VL: EIVLTQSPGTLSLSPGERATLSCQASQSISTALAWYQQKPGQAPRLLIYAASTLASGIPDRFSGSGSGTDFTLTISRLEPEDFAVYYCQQGYSSSNLDNVFGGGTKVEIKR
Turning to B5, the “EC50 (read off the curve)” value was approximately 0.8 nM in [15] and approximately 0.6 nM in assay [16].
